Data set [1] deals with T1, Rad51 wild type (Saccharomyces cerevisiae) (UniProt P25454).
T1 sequence: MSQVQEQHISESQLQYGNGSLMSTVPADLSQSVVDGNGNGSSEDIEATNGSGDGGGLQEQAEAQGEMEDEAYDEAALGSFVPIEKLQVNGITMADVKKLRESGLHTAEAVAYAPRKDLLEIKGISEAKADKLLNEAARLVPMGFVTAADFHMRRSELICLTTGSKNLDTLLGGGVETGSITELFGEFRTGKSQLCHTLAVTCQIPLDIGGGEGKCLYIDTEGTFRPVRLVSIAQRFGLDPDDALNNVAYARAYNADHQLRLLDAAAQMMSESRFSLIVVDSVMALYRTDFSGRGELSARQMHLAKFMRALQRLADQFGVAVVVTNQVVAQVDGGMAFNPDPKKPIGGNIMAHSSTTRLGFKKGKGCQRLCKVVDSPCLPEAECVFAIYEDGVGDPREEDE
The experiment in a line: EMSA. The conditions noted are these: Kd EMSA: 35 mM Tris-acetate pH 7.5, 50 or 100 mM NaCl, 7 mM Mg acetate, 2 mM ATP, 1 mM DTT, 0.25 mg/mL BSA, 3 uM nt/bp DNA, 30 C 30 min; salt titration: 20 mM ….

The target in data set [2] is T2, Rad51-ED (Rad51-E135D) E135D (Saccharomyces cerevisiae) (UniProt P25454).
T2 sequence: T1 sequence with E135D
The data set is described as follows: EMSA. The conditions noted are these: Kd EMSA: 35 mM Tris-acetate pH 7.5, 50 or 100 mM NaCl, 7 mM Mg acetate, 2 mM ATP, 1 mM DTT, 0.25 mg/mL BSA, 3 uM nt/bp DNA, 30 C 30 min; salt titration: 20 mM …. (In EMSA bound probe runs differently from free probe, usually more slowly.)

In data set [3] the target is T3, Rad51-KN (Rad51-K305N) K305N (Saccharomyces cerevisiae) (UniProt P25454).
T3 sequence: T1 sequence with K305N
The data set is described as follows: EMSA. As to conditions: Kd EMSA: 35 mM Tris-acetate pH 7.5, 50 or 100 mM NaCl, 7 mM Mg acetate, 2 mM ATP, 1 mM DTT, 0.25 mg/mL BSA, 3 uM nt/bp DNA, 30 C 30 min; salt titration: 20 mM ….

The target in data set [4] is T1, Rad51 wild type (Saccharomyces cerevisiae). The experiment in a line: EMSA (salt titration). As to conditions: 3.33 uM Rad51, ATP, Mg2+, glutaraldehyde fixed; Kd EMSA: 35 mM Tris-acetate pH 7.5, 50 or 100 mM NaCl, 7 mM Mg acetate, 2 mM ATP, 1 mM DTT, 0.25 mg/mL BSA, 3 uM nt/bp DNA, 30 C 30 min; salt titration: 20 mM ….
Data set [5] has as its target T2, Rad51-ED (Rad51-E135D) E135D (Saccharomyces cerevisiae). The data set is described as follows: EMSA (salt titration). The conditions noted are these: 3.33 uM Rad51, ATP, Mg2+; listed as label assigned from text (ED defect stronger); Kd EMSA: 35 mM Tris-acetate pH 7.5, 50 or 100 mM NaCl, 7 mM Mg acetate, 2 mM ATP, 1 mM DTT, 0.25 mg/mL BSA, 3 uM nt/bp DNA, 30 C 30 min; salt titration: 20 mM ….

Data set [6] has as its target T3, Rad51-KN (Rad51-K305N) K305N (Saccharomyces cerevisiae). The experiment in a line: EMSA (salt titration). As to conditions: 3.33 uM Rad51, ATP, Mg2+; listed as label assigned from text (ED defect stronger); Kd EMSA: 35 mM Tris-acetate pH 7.5, 50 or 100 mM NaCl, 7 mM Mg acetate, 2 mM ATP, 1 mM DTT, 0.25 mg/mL BSA, 3 uM nt/bp DNA, 30 C 30 min; salt titration: 20 mM ….

In data set [7] the target is T4, GST-Rad55-His6-Rad57 complex (S. cerevisiae, UniProt P38953 1-406; P25301 1-460).
T4 construct: Rad55, Rad51 paralog of budding yeast; Rad57, Rad51 paralog of budding yeast; stored in 20 mM Tris-HCl pH 7.5, 0.2 M NaCl, 0.1 mM EDTA, 1 mM DTT, 50% glycerol; also called Rad55-Rad57; Rad51 paralog complex; source: purified as described (Liu et al. 2011b)
T4 sequence (looked up) 1: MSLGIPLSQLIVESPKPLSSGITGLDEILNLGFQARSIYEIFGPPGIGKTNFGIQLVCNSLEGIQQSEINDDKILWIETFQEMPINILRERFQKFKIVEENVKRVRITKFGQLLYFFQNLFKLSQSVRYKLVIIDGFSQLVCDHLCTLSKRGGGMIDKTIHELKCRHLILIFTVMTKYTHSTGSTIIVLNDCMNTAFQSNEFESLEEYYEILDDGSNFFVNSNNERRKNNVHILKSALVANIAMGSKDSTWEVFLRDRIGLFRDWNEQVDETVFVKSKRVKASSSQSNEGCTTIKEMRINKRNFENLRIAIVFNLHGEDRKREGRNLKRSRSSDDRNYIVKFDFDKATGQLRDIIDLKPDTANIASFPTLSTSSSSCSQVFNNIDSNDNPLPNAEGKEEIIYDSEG
T4 sequence (looked up) 2: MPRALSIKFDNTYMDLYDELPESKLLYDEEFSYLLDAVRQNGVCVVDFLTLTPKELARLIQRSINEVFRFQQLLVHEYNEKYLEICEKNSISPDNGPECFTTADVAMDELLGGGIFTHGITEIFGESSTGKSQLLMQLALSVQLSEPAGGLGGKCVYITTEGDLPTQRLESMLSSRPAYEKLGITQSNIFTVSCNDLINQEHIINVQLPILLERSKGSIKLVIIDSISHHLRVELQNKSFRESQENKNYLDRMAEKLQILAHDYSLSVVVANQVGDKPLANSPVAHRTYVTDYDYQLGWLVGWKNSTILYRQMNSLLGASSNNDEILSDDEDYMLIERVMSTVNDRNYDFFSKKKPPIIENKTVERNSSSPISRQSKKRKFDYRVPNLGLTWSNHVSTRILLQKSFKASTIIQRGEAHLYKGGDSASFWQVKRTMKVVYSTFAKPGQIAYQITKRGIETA
The data set is described as follows: pull-down; 100 nM GST-Rad55-His6-Rad57 with 100 nM Rad51 in buffer P (25 mM Tris-acetate pH 7.5, 10 mM magnesium acetate, 50 mM NaCl, 1 mM DTT, 10% glycerol, 0.01% NP-40), 25 ul, 1 h at room temperature; captured on BSA-treated glutathione agarose beads; immunoblot with anti-Rad51 and anti-GST. The conditions noted are these: both partners purified. In general terms: Immunoblotting shows a protein as a band on a membrane.

Changes are numbered by the printed parent chain. Numbers in names are those of the source. Where “and” joins values, the source holds several entries; their conditions need not be identical. Identical values can stand only once.

Consider “AACGACGTTTGGTCAGTTCCATCAACATCATAGCCAGATGCCCAGAGATTAGAGCGCATGACAAGTAAAGGACGGTTGTCAGCGTCATAAGAGGTTTTAC [olWDH2086 100 nt ssDNA]”, for which the equilibrium dissociation constant (Kd) is 497 nM and 578 nM in data set [1]; 486 nM and 602 nM in data set [2]; 339 nM and 402 nM in data set [3].

As for PhiX174 RF1 dsDNA, the salt titration midpoint (mM NaCl (salt titration midpoint)) in data set [4] was 174; in data set [5], 42; in data set [6], 71.

In the case of PhiX174 viral ssDNA, the salt titration midpoint (mM NaCl (salt titration midpoint)) was 246 in data set [4], 130 in data set [5] and 143 in data set [6].

B1: Rad51 wild type protein (natural protein, S. cerevisiae, UniProt P25454 1-400, looked up)
chain: T1 sequence
notes: Rad51, Saccharomyces cerevisiae; native, untagged protein; Purified native and untagged; also called wild-type Rad51; wild type Rad51
Consider B1, for which, in data set [7], the binding result is given as “binds”.

B2: Rad51-K305N (natural protein, S. cerevisiae, UniProt P25454 1-400, looked up)
chain: T1 sequence with K305N
notes: Rad51, Saccharomyces cerevisiae, with the single change K305N (isolated by mutagenic PCR); native, untagged protein; also called Rad51-KN; RAD51-KN
B2: in data set [7], the binding result is on record as “binds”.

B3: Rad51-E135D (natural protein, S. cerevisiae, UniProt P25454 1-400, looked up)
chain: T1 sequence with E135D
notes: Rad51, Saccharomyces cerevisiae, with the single change E135D (isolated by mutagenic PCR); native, untagged protein; also called Rad51-ED; rad51-ED
As for B3, in data set [7], the binding result is given as “binds”.

What is called Kd is the free concentration of one partner at which half of the binding sites on the other are occupied at equilibrium, for simple one-to-one binding.
